Measurements as given in paper PMC10244618.
Where “and” joins values, the source holds several entries; their conditions need not be identical. Equal entries are not always repeated.

B1: NF2 (merlin) isoform 7, human, full length (507 aa, lacks exons 2-3 = isoform-1 residues 39-121; exon-16 C-terminus), P35240-4 (parent)
chain: MAGAIASRMSFSSLKRKQPKTFTVRIVTMDAEMEFNCEVKKQILDEKIYCPPEASVLLASYAVQAKYGDYDPSVHKRGFLAQEELLPKRVINLYQMTPEMWEERITAWYAEHRGRARDEAEMEYLKIAQDLEMYGVNYFAIRNKKGTELLLGVDALGLHIYDPENRLTPKISFPWNEIRNISYSDKEFTIKPLDKKIDVFKFNSSKLRVNKLILQLCIGNHDLFMRRRKADSLEVQQMKAQAREEKARKQMERQRLAREKQMREEAERTRDELERRLLQMKEEATMANEALMRSEETADLLAEKAQITEEEAKLLAQKAAEAEQEMQRIKATAIRTEEEKRLMEQKVLEAEVLALKMAEESERRAKEADQLKQDLQEAREAERRAKQKLLEIATKPTYPPMNPIPAPLPPDIPSFNLIGDSLSFDFKDTDMKRLSMEIEKEKVEYMEKSKHLQEQLNELKTEIEALKLKERETALDILHNENSDRGGSSKHNTIKKPQAQGRRPICI

Variants of: B1
Assay: reverse yeast two-hybrid deep mutational scan (rY2H-seq): NF2 isoform 7 mutant library as bait mated with wild-type prey strains; selection on medium lacking adenine for non-interacting pairs; NextSeq paired-end sequencing; enrichment vs …
Settings: with NF2 C-terminal domain (wild type; homomeric NF2-NF2 interaction), P35240; yeast diploids after mating (RBait_S3 x RPrey_S3), 30 °C, selection for reporter genes on NB agar; human ABL2 co-expressed as the kinase-dead K35M mutant …; HIGHER = WEAKER BINDING (the opposite of display enrichments): higher = stronger loss of interaction: reverse Y2H selects yeast in which bait and prey do NOT interact (growth without adenine), so a …; hits-only table; partner unresolved; scale: rY2H score; numbering: uniprot, sequence starts at 1

Going from E83K to L348A, the enrichment falls from 18.2 to 4.71.

Going from S489K to H479A, the enrichment rises from 2.15 to 4.46.

Compared with E380K, A302K is lower in enrichment: 3.26 for the first, 1.89 for the second.

Compared with F415E, L390A is lower in enrichment: 2.37 for the first, 2.28 for the second.

First: A266L
Second: P413K
The enrichment of the first is higher: 3.08 for the first, 1.53 for the second.

First: T394K
Second: Y70H
The enrichment of the first is higher: 1.65 for the first, 1.43 for the second.

Compared with N457E, A358K is higher in enrichment: 2.32 for the first, 3.8 for the second.

Compared with K496S, L408C is lower in enrichment: 1.44 for the first, 1.37 for the second.

Going from L466C to A312K, the enrichment rises from 1.55 to 2.34.

Going from L291E to A406L, the enrichment rises from 2.16 to 10.

First: F139E
Second: R293K
The enrichment of the first is higher: 20.1 for the first, 7.18 for the second.

Compared with M238A, D69L is lower in enrichment: 4.02 for the first, 1.7 for the second.

First: L158G
Second: K395S
The enrichment of the first is lower: 1.55 for the first, 2.15 for the second.

Same assay, conditions: with PIK3R3 (phosphatidylinositol 3-kinase regulatory subunit gamma), Q92569; yeast diploids after mating (RBait_S3 x RPrey_S3), 30 °C, selection for reporter genes on NB agar; human tyrosine kinase ABL2 co-expressed as the active kinase …; HIGHER = WEAKER BINDING (the opposite of display enrichments): higher = stronger loss of interaction: reverse Y2H selects yeast in which bait and prey do NOT interact (growth without adenine), so a …; hits-only table; scale: rY2H score; numbering: uniprot, sequence starts at 1

Going from L348A to F415E, the enrichment falls from 2.29 to 1.83.

Compared with A312K, L14P is higher in enrichment: 2 for the first, 3.46 for the second.

L207G and I141C are the same in enrichment: 1.42 for the first, 1.42 for the second.

Compared with S55K, R166C is lower in enrichment: 35.5 for the first, 1.57 for the second.

First: G486S
Second: A140V
The enrichment of the first is higher: 2.29 for the first, 2.13 for the second.

Going from S73A to D484E, the enrichment falls from 4.51 to 2.39.

First: S294F
Second: A155T
The enrichment of the first is higher: 2.27 for the first, 2.16 for the second.

Compared with P52A, T394S is higher in enrichment: 1.76 for the first, 1.98 for the second.

Going from V24A to K388E, the enrichment rises from 2.39 to 3.32.

Going from R89G to V63K, the enrichment rises from 1.41 to 2.

Going from M280I to K346N, the enrichment falls from 2.64 to 2.36.

Compared with S294V, E339G is higher in enrichment: 1.71 for the first, 2.91 for the second.

First: Q498E
Second: F173T
The enrichment of the first is lower: 1.97 for the first, 11 for the second.

Going from V352K to M225I, the enrichment falls from 2.67 to 2.15.

Going from M401Q to P396K, the enrichment rises from 2.91 to 4.88.

Compared with A62K, M357E is lower in enrichment: 2.93 for the first, 2.86 for the second.

Going from L149P to D194N, the enrichment falls from 2.48 to 1.96.

First: A368L
Second: L212P
The enrichment of the first is lower: 2.18 for the first, 2.57 for the second.

First: R485K
Second: K191S
The enrichment of the first is higher: 6.26 for the first, 2.28 for the second.

First: F173P
Second: D71T
The enrichment of the first is higher: 13 for the first, 11.1 for the second.

First: N176M
Second: E234K
The enrichment of the first is lower: 1.43 for the first, 1.73 for the second.

Going from G146R to T147A, the enrichment rises from 1.52 to 5.43.

First: L353P
Second: E458L
The enrichment of the first is lower: 1.53 for the first, 13.6 for the second.

Compared with G68V, T336E is lower in enrichment: 7.34 for the first, 3.42 for the second.

Going from M133I to R166K, the enrichment rises from 2.1 to 2.44.

First: T493A
Second: L216P
The enrichment of the first is lower: 2.62 for the first, 3.07 for the second.

Compared with A365G, I171L is lower in enrichment: 2.6 for the first, 1.51 for the second.

Same assay, conditions: with NF2 C-terminal domain (wild type; homomeric NF2-NF2 interaction), P35240; yeast diploids after mating (RBait_S3 x RPrey_S3), 30 °C, selection for reporter genes on NB agar; human ABL2 co-expressed as the kinase-dead K35M mutant …; HIGHER = WEAKER BINDING (the opposite of display enrichments): higher = stronger loss of interaction: reverse Y2H selects yeast in which bait and prey do NOT interact (growth without adenine), so a …; hits-only table; partner unresolved; scale: rY2H score; numbering: uniprot, sequence starts at 1

For K126L, the enrichment was 1.8 and 2.78.
